The values below come from patent US20240043522A1.

Test [1] addresses biotinylated human FcRn protein (human) (UniProt P55899). As to the kind of experiment: SPR (Biacore T200), biotinylated hFcRn captured on CAP chip, antibody as analyte.
In test [2] the target is His-tagged recombinant human FcγRI/CD64 (human) (UniProt P12314). As to the kind of experiment: SPR (Biacore T200), His-tagged FcγR captured by anti-His, antibody as analyte, 1:1 kinetic model. On the technique in general: In SPR one partner is held on a chip, and binding of the other changes the refractive index at the surface.
In test [3] the target is His-tagged recombinant human FcγRIIIa/CD16a (V158) (human) (UniProt P08637). Described as above.
Test [4] addresses His-tagged recombinant human FcγRIIa/CD32a (R167) (human) (UniProt P12318). The description is as above.
Test [5] deals with His-tagged recombinant human FcγRIIb/c/CD32b/c (human) (UniProt P31994). Described as above.
In test [6] the target is His-tagged recombinant mouse FcγR4/CD16-2 (mouse). The test is described as above.

Sequence of biotinylated human FcRn protein (human) (P55899 24-297 limits assumed, form in doubt, chain 1 of 2): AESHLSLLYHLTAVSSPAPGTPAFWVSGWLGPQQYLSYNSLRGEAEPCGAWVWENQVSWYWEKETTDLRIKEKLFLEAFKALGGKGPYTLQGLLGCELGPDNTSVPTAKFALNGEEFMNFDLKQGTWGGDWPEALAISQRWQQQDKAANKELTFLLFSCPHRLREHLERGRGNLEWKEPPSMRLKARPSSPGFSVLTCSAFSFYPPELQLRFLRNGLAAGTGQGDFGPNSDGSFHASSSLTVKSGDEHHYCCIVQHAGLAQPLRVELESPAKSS
Sequence of biotinylated human FcRn protein (human) (P61769 21-119 limits assumed, form in doubt, chain 2 of 2, further chain): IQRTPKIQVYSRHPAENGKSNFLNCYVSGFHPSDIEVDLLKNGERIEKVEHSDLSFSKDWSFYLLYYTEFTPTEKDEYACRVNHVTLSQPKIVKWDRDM
Sequence of His-tagged recombinant human FcγRIIIa/CD16a (V158) (human) (P08637 17-208 F176V limits assumed): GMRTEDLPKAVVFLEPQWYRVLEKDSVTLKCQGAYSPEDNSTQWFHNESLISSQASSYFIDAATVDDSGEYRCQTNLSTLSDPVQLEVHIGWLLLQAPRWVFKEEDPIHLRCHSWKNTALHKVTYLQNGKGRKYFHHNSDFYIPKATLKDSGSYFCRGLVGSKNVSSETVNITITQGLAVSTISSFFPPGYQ
Sequence of His-tagged recombinant human FcγRI/CD64 (human) (P12314 16-288 limits assumed): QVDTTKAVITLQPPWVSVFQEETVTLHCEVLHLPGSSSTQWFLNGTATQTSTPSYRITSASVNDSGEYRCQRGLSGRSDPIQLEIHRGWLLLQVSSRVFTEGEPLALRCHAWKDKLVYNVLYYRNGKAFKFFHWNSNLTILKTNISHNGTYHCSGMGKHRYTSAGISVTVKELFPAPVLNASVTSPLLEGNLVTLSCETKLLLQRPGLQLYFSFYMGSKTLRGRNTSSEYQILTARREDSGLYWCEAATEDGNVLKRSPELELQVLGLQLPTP
Sequence of His-tagged recombinant human FcγRIIa/CD32a (R167) (human) (P12318 36-218 H167R limits assumed): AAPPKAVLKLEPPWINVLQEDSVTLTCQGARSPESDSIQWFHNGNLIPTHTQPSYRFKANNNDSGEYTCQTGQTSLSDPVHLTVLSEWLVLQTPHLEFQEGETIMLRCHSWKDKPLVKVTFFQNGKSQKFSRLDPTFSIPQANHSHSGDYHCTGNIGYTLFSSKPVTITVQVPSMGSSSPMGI
Sequence of His-tagged recombinant human FcγRIIb/c/CD32b/c (human) (P31994 46-217 limits assumed): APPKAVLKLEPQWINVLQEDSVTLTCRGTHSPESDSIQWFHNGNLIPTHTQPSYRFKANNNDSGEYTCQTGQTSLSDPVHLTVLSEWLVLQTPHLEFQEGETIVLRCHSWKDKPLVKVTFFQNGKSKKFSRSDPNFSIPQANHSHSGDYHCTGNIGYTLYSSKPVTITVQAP

Broadly, the Kd is a measure of binding affinity in units of concentration. Turning to “mab01 (adalimumab, IgG1 wild-type) (antibody)”, the equilibrium dissociation constant (Kd) in test [1] is 361 nM; in test [2], 0.8 nM; in test [3] it was 656 nM; in test [4], 3280 nM; in test [5] it was more than 10000 nM; in test [6], 827 nM.

In the case of “mab02 (adalimumab Fab, IgG1 L234A/L235A N297A, aglycosylated) (antibody)”, the dissociation constant (Kd) in test [1] is 263 nM.

As to “mab03 (adalimumab Fab, IgG2 Fc-backbone) (antibody)”, the dissociation constant Kd is 342 nM in test [1]; more than 10000 nM in test [3]; more than 5000 nM in test [4]; more than 10000 nM in test [5]; more than 10000 nM in test [6].

Take “mab04 (adalimumab Fab, IgG1 E269R, K322A) (antibody)”: the Kd in test [1] is 357 nM; in test [2] it was 6.7 nM; in test [3], more than 10000 nM; in test [6], more than 5000 nM.

For the substance “mab05 (adalimumab Fab, IgG1 L234A/L235A P329A) (antibody)”, the dissociation constant Kd in test [1] is 265 nM; in test [2], more than 10000 nM.

In the case of “mab06 (adalimumab Fab, upside-down IgG1 Fc, no linker between CH1 and CH2) (antibody)”, the Kd in test [1] stood at 528 nM.

In the case of “mab07 (adalimumab Fab, upside-down IgG1 Fc with 19GS-linker between CH1 and CH2) (antibody)”, the Kd in test [1] was 348 nM.
